Data on one molecule can be found in paper PMC6879612 (Nature Communications, 2019).

The target in the assay is T1, p53_(125–134)/HLA-A24 pMHC, soluble recombinant (Homo sapiens, HLA-A*24:02, biotin where the biotinylated pMHC was used (site not stated)).
T1 construct: HLA-A24 heavy chain (α-chain), recombinant; β2-microglobulin, recombinant; source: biotinylated or non-biotinylated; copies: + +
Description: ELISA; biotinylated pMHC captured on NeutrAvidin-coated wells; IgG1 in solution, detected with HRP anti-human IgG Fcγ. The conditions noted are these: both partners purified. In general terms: ELISA stands for enzyme-linked immunosorbent assay.

B1: P1C1 (parental clone), human IgG1 (antibody, V domains shown)
VH: QLQLQESGPGLVKPSQTLSLTCAVSGGSISSGGYYWSWIRQRPGKGLEWIGYIYYSGSTYYNPSLKSRLTISVDTSKNQFSLKLSSVTAADTAVYYCARENFGAFDHWGQGTLVTVSS
VL: QAVLTQPSSVSGAPGQRVTISCTGSSSNIGADYETHWYQHLPGTAPKLLIYGNTNRPSGVPHRFSGSKSGTSASLAITGLQAEDEADYYCQSYDSNLSAWVFGGGTKLTIL
notes: heavy framework 1 of the parental clone; heavy CDR1 (Kabat); heavy framework 2, CDR2, framework 3; heavy CDR3 (Kabat); heavy framework 4; light framework 1 of the parental clone; light CDR1 (Kabat); light framework 2, CDR2, framework 3; light CDR3 (Kabat); light framework 4; Human IgG1; From a naive human Fab phage library (Humanyx); also called parental P1C1 antibody; source: HEK293-6E, pTT5 …
For the molecule B1, the binding result is “binds”.
